Earlier results in article PMC5331060.
Read-outs that look alike come from different tables or passages of the source.

What was measured:
[1] = target: beta clamp (Escherichia coli) (UniProt P0A988)
[2] = target: beta clamp (Escherichia coli) (UniProt P0A988); remark: listed apart in the source

Sequence of UniProt P0A988 (P0A988 whole entry): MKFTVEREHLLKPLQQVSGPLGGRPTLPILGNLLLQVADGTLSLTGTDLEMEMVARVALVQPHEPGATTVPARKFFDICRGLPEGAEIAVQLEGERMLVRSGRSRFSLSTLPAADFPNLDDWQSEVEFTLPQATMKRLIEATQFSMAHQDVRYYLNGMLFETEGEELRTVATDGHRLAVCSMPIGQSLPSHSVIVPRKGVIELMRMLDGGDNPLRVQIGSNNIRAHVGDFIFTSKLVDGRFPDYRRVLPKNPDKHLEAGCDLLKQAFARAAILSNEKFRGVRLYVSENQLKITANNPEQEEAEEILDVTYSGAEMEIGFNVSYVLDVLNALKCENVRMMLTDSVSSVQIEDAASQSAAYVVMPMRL

Row | Substance | Kd [1] | Kd [2]
1 | DinB (Pol IV) (from UniProt Q47155) | 460 nM | 
2 | Pol III alpha (from UniProt P10443) |  | 108 nM
